What was measured:
[1] = target: FLAG-tagged Ser1169Cys (S2C) C-Proα2(I) (human); test: co-IP; sequential: conditioned media of co-transfected HEK293 cells, anti-FLAG beads (C-Proα2(I)), FLAG peptide elution, then HA beads (C-Proα1(I)); non-reducing, washes with 50 mM EDTA to deplete Ca^2+, 4 °C; reducing SDS-PAGE immunoblot; ratio by quantified blots
[2] = target: wild-type, HA-tagged C-Proα1(III) (human); test: non-reducing SDS-PAGE immunoblot; conditioned media of transfected HEK293 cells, treated with 100 mM iodoacetamide, boiled in SDS, 12% gel, non-reducing; denaturing, shows disulfide-linked species only; two-colour detection of HA and FLAG
[3] = target: purified wild-type C-Proα2(I), His tag cleaved (human); test: AUC; sedimentation equilibrium, 25 °C, 20 mM Bis-Tris propane pH 7, 150 mM NaCl, with 0.5 mM CaCl2; monomer to trimer
[4] = target: purified wild-type C-Proα2(I), His tag cleaved (human); test: AUC; sedimentation equilibrium, 25 °C, 20 mM Bis-Tris propane pH 7, 150 mM NaCl, without Ca^2+; equilibrium constants are of monomer to dimer
[5] = target: wild-type, FLAG-tagged C-Proα2(I) (C-propeptide domain of human Colα2(I)) (human); test: co-IP; sequential: conditioned media of co-transfected HEK293 cells, anti-FLAG beads (C-Proα2(I)), FLAG peptide elution, then HA beads (C-Proα1(I)); non-reducing, washes with 50 mM EDTA to deplete Ca^2+, 4 °C; reducing SDS-PAGE immunoblot; ratio by quantified blots
wild-type, FLAG-tagged C-Proα2(I) (C-propeptide domain of human Colα2(I)) (human), sequence (P08123 23-1366): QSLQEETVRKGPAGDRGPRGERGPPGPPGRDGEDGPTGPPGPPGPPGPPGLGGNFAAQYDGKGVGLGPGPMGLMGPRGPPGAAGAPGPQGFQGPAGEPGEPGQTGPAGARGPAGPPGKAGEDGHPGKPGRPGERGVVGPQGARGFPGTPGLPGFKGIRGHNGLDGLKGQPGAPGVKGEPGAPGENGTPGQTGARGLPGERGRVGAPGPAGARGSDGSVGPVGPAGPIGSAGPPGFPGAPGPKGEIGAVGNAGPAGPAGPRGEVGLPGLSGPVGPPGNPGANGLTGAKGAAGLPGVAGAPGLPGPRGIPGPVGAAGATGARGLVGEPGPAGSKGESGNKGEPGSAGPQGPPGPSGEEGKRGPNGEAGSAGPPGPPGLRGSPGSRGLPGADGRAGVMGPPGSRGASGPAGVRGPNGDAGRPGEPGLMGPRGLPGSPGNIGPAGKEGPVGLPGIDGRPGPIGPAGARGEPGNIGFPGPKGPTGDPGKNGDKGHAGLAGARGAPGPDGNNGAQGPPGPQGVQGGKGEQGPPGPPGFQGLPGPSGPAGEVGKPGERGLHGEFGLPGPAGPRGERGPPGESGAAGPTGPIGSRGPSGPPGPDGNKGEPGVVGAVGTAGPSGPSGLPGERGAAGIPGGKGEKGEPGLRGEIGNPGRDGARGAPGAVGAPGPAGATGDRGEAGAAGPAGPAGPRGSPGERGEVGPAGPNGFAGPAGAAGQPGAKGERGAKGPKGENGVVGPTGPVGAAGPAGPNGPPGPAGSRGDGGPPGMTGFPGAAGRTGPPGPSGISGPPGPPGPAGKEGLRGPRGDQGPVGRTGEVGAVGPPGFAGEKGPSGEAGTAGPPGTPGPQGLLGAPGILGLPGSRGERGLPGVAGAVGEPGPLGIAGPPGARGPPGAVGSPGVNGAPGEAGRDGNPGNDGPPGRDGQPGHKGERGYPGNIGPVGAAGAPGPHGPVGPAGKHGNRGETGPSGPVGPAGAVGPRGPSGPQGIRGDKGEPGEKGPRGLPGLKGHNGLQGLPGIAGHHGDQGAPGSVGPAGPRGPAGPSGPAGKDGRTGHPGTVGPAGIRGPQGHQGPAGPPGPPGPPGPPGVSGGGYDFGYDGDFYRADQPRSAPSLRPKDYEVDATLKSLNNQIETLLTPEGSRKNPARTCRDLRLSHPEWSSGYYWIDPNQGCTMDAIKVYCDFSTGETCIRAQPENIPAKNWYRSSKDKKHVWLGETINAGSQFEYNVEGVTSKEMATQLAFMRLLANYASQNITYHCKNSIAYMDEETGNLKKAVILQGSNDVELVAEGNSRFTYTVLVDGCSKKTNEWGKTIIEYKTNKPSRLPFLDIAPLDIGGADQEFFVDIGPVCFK

[6] = target: FLAG-tagged Ser1169Cys (S2C) C-Proα2(I) (human); test: non-reducing SDS-PAGE immunoblot; wild-type C-Proα1(I) and S2C C-Proα2(I) co-expressed at 1:1, 2:1 and 5:1; media depleted by HA immunoprecipitation, unbound fraction FLAG-immunoprecipitated, elutions on a non-reducing SDS-PAGE gel
[7] = target: FLAG-tagged Ser1169Cys (S2C) C-Proα2(I) (human); test: non-reducing SDS-PAGE immunoblot; conditioned media of transfected HEK293 cells, treated with 100 mM iodoacetamide, boiled in SDS, 12% gel, non-reducing; denaturing, shows disulfide-linked species only; two-colour detection of HA and FLAG
[8] = target: purified S2C (Ser1169Cys) C-Proα2(I), His tag cleaved (human); test: AUC; sedimentation equilibrium, 25 °C, 20 mM Bis-Tris propane pH 7, 150 mM NaCl, with 0.5 mM CaCl2; monomer to trimer
[9] = target: purified S2C (Ser1169Cys) C-Proα2(I), His tag cleaved (human); test: AUC; sedimentation equilibrium, 25 °C, 20 mM Bis-Tris propane pH 7, 150 mM NaCl, without Ca^2+; equilibrium constants are of monomer to dimer

HA-tagged Cys1265Ser (C2S) C-Proα1(I) (from UniProt P02452 1219-1464) (domain or fragment)
stoichiometry N (C-Proα1(I):C-Proα2(I)) [1]: 0.5

wild-type, HA-tagged C-Proα1(III) (domain or fragment)
stoichiometry N [2]: 3

purified wild-type C-Proα2(I), His tag cleaved (domain or fragment)
stoichiometry N [3]: 3
Ka [4]: 6500 M⁻¹
stoichiometry N [4]: 2

wild-type, HA-tagged C-Proα1(I) (C-propeptide domain of human Colα1(I)) (from UniProt P02452 1219-1464) (domain or fragment)
stoichiometry N (C-Proα1(I):C-Proα2(I)) [5]: 2
stoichiometry N (C-Proα1(I):C-Proα2(I)) [1]: 2

FLAG-tagged Ser1169Cys (S2C) C-Proα2(I) (domain or fragment)
stoichiometry N [6]: 3
stoichiometry N [7]: 3

purified S2C (Ser1169Cys) C-Proα2(I), His tag cleaved (domain or fragment)
stoichiometry N [8]: 3
stoichiometry N [9]: 3

From PMC6181919
